This data set addresses T1, HDP1 homeodomain-like (Plasmodium falciparum, UniProt Q8IKH4 2990-3078).
T1 sequence: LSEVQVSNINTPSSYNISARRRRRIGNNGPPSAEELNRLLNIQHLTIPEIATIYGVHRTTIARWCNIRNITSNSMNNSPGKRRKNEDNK
Description: gcPBM; about 25 ug protein; PBS, 1% milk, 0.2 mg/ml BSA, salmon testes DNA, 0.03% Triton X-100. The note with it: tags: N-terminal GST (pGEX-4T-1), kept; chain copies: 2; label: surface-attached array probe.

B1: GTGCAC_negctrl_site596 (dsDNA)
DNA 1: TTTTTTATTTTATTTTATTTTTATTTTTTTTTTTTT
DNA 2: AAAAAAAAAAAAATAAAAATAAAATAAAATAAAAAA
On to B1, for which the binding signal was 6.26 ln median PBM intensity, better of two orientations.

B2: GTGCAC_negctrl_site710 (dsDNA)
DNA 1: AATATATTTTAGAGTTTTATATATTTTATGCATATA
DNA 2: TATATGCATAAAATATATAAAACTCTAAAATATATT
As to B2, the binding signal was 6.25 ln median PBM intensity, better of two orientations.

B3: GTGCAC_negctrl_site147 (dsDNA)
DNA 1: AGTAAAAAAAAAAAAAAAAAAAAAAAAAAAAAAAAA
DNA 2: TTTTTTTTTTTTTTTTTTTTTTTTTTTTTTTTTACT
Consider B3, for which the binding signal was 6.13 ln median PBM intensity, better of two orientations.

B4: GTGCAC_negctrl_site183 (dsDNA)
DNA 1: TGTATAGGTACAATAATTATAGAGTAATTGACATTA
DNA 2: TAATGTCAATTACTCTATAATTATTGTACCTATACA
As to B4, the binding signal is 6.21 ln median PBM intensity, better of two orientations.

B5: GTGCAC_negctrl_site352 (dsDNA)
DNA 1: TTTTTTTTTTTTTTTTTTTTCACATGTGTGGAAAAA
DNA 2: TTTTTCCACACATGTGAAAAAAAAAAAAAAAAAAAA
For the molecule B5, the binding signal was 6.23 ln median PBM intensity, better of two orientations.

B6: GTGCAC_negctrl_site549 (dsDNA)
DNA 1: TTTTTTATAGTACATTACCAAAAAAAAAAAAAAAAA
DNA 2: TTTTTTTTTTTTTTTTTGGTAATGTACTATAAAAAA
With B6, the binding signal is 6.26 ln median PBM intensity, better of two orientations.

B7: GTGCAC_negctrl_site236 (dsDNA)
DNA 1: TGTTAAAAGGTTAAATTAAAATAACCTCCGGAAATT
DNA 2: AATTTCCGGAGGTTATTTTAATTTAACCTTTTAACA
With B7, the binding signal is 6.21 ln median PBM intensity, better of two orientations.

B8: GTGCAC_negctrl_site190 (dsDNA)
DNA 1: TAGTTACTTCTTATATAAAATATGTATATAAAAATA
DNA 2: TATTTTTATATACATATTTTATATAAGAAGTAACTA
As to B8, the binding signal was 6.17 ln median PBM intensity, better of two orientations.

B9: GTGCAC_negctrl_site87 (dsDNA)
DNA 1: ATATATATAAAATATTATATTAAAAAAAATAAAATA
DNA 2: TATTTTATTTTTTTTAATATAATATTTTATATATAT
On to B9, for which the binding signal is 6.1 ln median PBM intensity, better of two orientations.

B10: GTGCAC_negctrl_site77 (dsDNA)
DNA 1: TATTAAAATATGTCAGTTCTTAAAAAGTTGATGAGT
DNA 2: ACTCATCAACTTTTTAAGAACTGACATATTTTAATA
For the molecule B10, the binding signal is 6.19 ln median PBM intensity, better of two orientations.

B11: GTGCAC_negctrl_site73 (dsDNA)
DNA 1: AGCACACAAAAAAAAAAAAAAAAAAAAAAAGGAATG
DNA 2: CATTCCTTTTTTTTTTTTTTTTTTTTTTTGTGTGCT
With B11, the binding signal was 6.21 ln median PBM intensity, better of two orientations.

B12: GTGCAC_negctrl_site318 (dsDNA)
DNA 1: ATTTAAAAAAAAAAAAATAAATAACTTGAAAAACAA
DNA 2: TTGTTTTTCAAGTTATTTATTTTTTTTTTTTTAAAT
With B12, the binding signal was 6.08 ln median PBM intensity, better of two orientations.

B13: GTGCAC_negctrl_site230 (dsDNA)
DNA 1: TGTTGTTATAAAAAAAAAAAAAAAAAAAAAAAAAAA
DNA 2: TTTTTTTTTTTTTTTTTTTTTTTTTTTATAACAACA
Consider B13, for which the binding signal was 6.26 ln median PBM intensity, better of two orientations.

B14: GTGCAC_negctrl_site639 (dsDNA)
DNA 1: AAATAATTTATAAATAAATACATTGTTACTTTTTCT
DNA 2: AGAAAAAGTAACAATGTATTTATTTATAAATTATTT
As to B14, the binding signal is 6.13 ln median PBM intensity, better of two orientations.

B15: GTGCAC_negctrl_site607 (dsDNA)
DNA 1: TTTTCATTTATGTATATATTTATTTTGATTTAATGT
DNA 2: ACATTAAATCAAAATAAATATATACATAAATGAAAA
On to B15, for which the binding signal is 6.11 ln median PBM intensity, better of two orientations.

B16: GTGCAC_negctrl_site622 (dsDNA)
DNA 1: TTTTGAATATATTAAATAAATTAAAAATCTACAAAC
DNA 2: GTTTGTAGATTTTTAATTTATTTAATATATTCAAAA
Regarding B16, the binding signal was 6.24 ln median PBM intensity, better of two orientations.

B17: GTGCAC_negctrl_site52 (dsDNA)
DNA 1: TTTTTACTATAATTAAAATTAACAAAAGAAAATGAT
DNA 2: ATCATTTTCTTTTGTTAATTTTAATTATAGTAAAAA
Take B17: the binding signal was 6.13 ln median PBM intensity, better of two orientations.

B18: GTGCAC_negctrl_site151 (dsDNA)
DNA 1: TTTGTTCTATGGAGTTTAAAATGTAATATATATTAA
DNA 2: TTAATATATATTACATTTTAAACTCCATAGAACAAA
Consider B18, for which the binding signal was 6.25 ln median PBM intensity, better of two orientations.

B19: GTGCAC_negctrl_site10 (dsDNA)
DNA 1: TGCCATATATATATTAAATACATAATAATGAGCCTA
DNA 2: TAGGCTCATTATTATGTATTTAATATATATATGGCA
In the case of B19, the binding signal was 6.22 ln median PBM intensity, better of two orientations.

B20: GTGCAC_negctrl_site17 (dsDNA)
DNA 1: TTTTTTTTTTTTTTTTTTTTCTTCATTTAATTTATA
DNA 2: TATAAATTAAATGAAGAAAAAAAAAAAAAAAAAAAA
As for B20, the binding signal was 6.26 ln median PBM intensity, better of two orientations.

B21: GTGCAC_negctrl_site697 (dsDNA)
DNA 1: AAAACTTTTAAAATTTTGTATTCATTCCTTCAACAA
DNA 2: TTGTTGAAGGAATGAATACAAAATTTTAAAAGTTTT
Turning to B21, the binding signal is 6.07 ln median PBM intensity, better of two orientations.

B22: GTGCAC_negctrl_site240 (dsDNA)
DNA 1: TTTTTTTTTTTTTTTTTTTGATTCTTATAAAAATTT
DNA 2: AAATTTTTATAAGAATCAAAAAAAAAAAAAAAAAAA
In the case of B22, the binding signal is 6.02 ln median PBM intensity, better of two orientations.

B23: GTGCAC_negctrl_site221 (dsDNA)
DNA 1: ATATGTATAAGTATGTATATTTATTTATACTTATGT
DNA 2: ACATAAGTATAAATAAATATACATACTTATACATAT
Regarding B23, the binding signal is 6.16 ln median PBM intensity, better of two orientations.

B24: GTGCAC_negctrl_site542 (dsDNA)
DNA 1: AAAATCCAGTTTTCAAAATTGAACAAAAAAAAAATA
DNA 2: TATTTTTTTTTTGTTCAATTTTGAAAACTGGATTTT
Regarding B24, the binding signal was 6.19 ln median PBM intensity, better of two orientations.

B25: GTGCAC_negctrl_site74 (dsDNA)
DNA 1: AATTGGAAGAAAAAAAAGGAAGGAAAGTTATTACAT
DNA 2: ATGTAATAACTTTCCTTCCTTTTTTTTCTTCCAATT
In the case of B25, the binding signal is 6.06 ln median PBM intensity, better of two orientations.

B26: GTGCAC_negctrl_site20 (dsDNA)
DNA 1: TAGTTCCTCAAAAATTTCCTTTGTCATTTTATTCAC
DNA 2: GTGAATAAAATGACAAAGGAAATTTTTGAGGAACTA
Regarding B26, the binding signal was 6.25 ln median PBM intensity, better of two orientations.

B27: GTGCAC_negctrl_site480 (dsDNA)
DNA 1: TTATAATAAAAGGCTTTACAATTATTAAACAAATAA
DNA 2: TTATTTGTTTAATAATTGTAAAGCCTTTTATTATAA
As for B27, the binding signal is 6.03 ln median PBM intensity, better of two orientations.

B28: GTGCAC_negctrl_site564 (dsDNA)
DNA 1: ATAATGAACAATATTATATATAAAATATAATTTATA
DNA 2: TATAAATTATATTTTATATATAATATTGTTCATTAT
For B28, the binding signal was 6.17 ln median PBM intensity, better of two orientations.

B29: GTGCAC_negctrl_site550 (dsDNA)
DNA 1: AAAAAAAATAAAGAGAAAAAAAAAAGAAAATTATAT
DNA 2: ATATAATTTTCTTTTTTTTTTCTCTTTATTTTTTTT
As to B29, the binding signal is 6.22 ln median PBM intensity, better of two orientations.

B30: GTGCAC_negctrl_site405 (dsDNA)
DNA 1: TTTTTTATATTGATATTTATTAAATATGAAATGTTA
DNA 2: TAACATTTCATATTTAATAAATATCAATATAAAAAA
Regarding B30, the binding signal was 6.13 ln median PBM intensity, better of two orientations.

B31: GTGCAC_negctrl_site144 (dsDNA)
DNA 1: TTTTTTCTTTTTTTTTTTAATTATAAACATGATATT
DNA 2: AATATCATGTTTATAATTAAAAAAAAAAAGAAAAAA
Take B31: the binding signal was 6.07 ln median PBM intensity, better of two orientations.

B32: GTGCAC_negctrl_site152 (dsDNA)
DNA 1: ATTATTTAATTTTATTAAAAAAAAACAAATTAACAG
DNA 2: CTGTTAATTTGTTTTTTTTTAATAAAATTAAATAAT
Consider B32, for which the binding signal was 6.14 ln median PBM intensity, better of two orientations.

B33: GTGCAC_negctrl_site459 (dsDNA)
DNA 1: TTTTTTAGATTACATAAATATAAATATAAATATATA
DNA 2: TATATATTTATATTTATATTTATGTAATCTAAAAAA
As to B33, the binding signal is 6.12 ln median PBM intensity, better of two orientations.

B34: GTGCAC_negctrl_site630 (dsDNA)
DNA 1: TTCTTTTCTTTTTTCTTTTTTTTTTTCTTTTCTTTT
DNA 2: AAAAGAAAAGAAAAAAAAAAAGAAAAAAGAAAAGAA
On to B34, for which the binding signal was 6.08 ln median PBM intensity, better of two orientations.

B35: GTGCAC_negctrl_site722 (dsDNA)
DNA 1: ATAATACAAAAAAAAAAAAAAAATAAAATAATAAAA
DNA 2: TTTTATTATTTTATTTTTTTTTTTTTTTTGTATTAT
Turning to B35, the binding signal was 6.04 ln median PBM intensity, better of two orientations.

B36: GTGCAC_negctrl_site303 (dsDNA)
DNA 1: TCTTTTTTTTTTTTTTTTTCTTCTTCTCAATATAAA
DNA 2: TTTATATTGAGAAGAAGAAAAAAAAAAAAAAAAAGA
Take B36: the binding signal was 6.15 ln median PBM intensity, better of two orientations.

B37: GTGCAC_negctrl_site143 (dsDNA)
DNA 1: TTTTTTTTTTTTTTTTTTTTTTTTTTGTTCAGGCCT
DNA 2: AGGCCTGAACAAAAAAAAAAAAAAAAAAAAAAAAAA
As to B37, the binding signal is 5.99 ln median PBM intensity, better of two orientations.

B38: GTGCAC_negctrl_site289 (dsDNA)
DNA 1: TTTTTAGAAAAGGTTATAAAAAATTAATTGAAAAAA
DNA 2: TTTTTTCAATTAATTTTTTATAACCTTTTCTAAAAA
B38: the binding signal is 6.15 ln median PBM intensity, better of two orientations.

B39: GTGCAC_negctrl_site162 (dsDNA)
DNA 1: TTTCTTATAGATTTTAATCCTCTATCAAAAAAAGAA
DNA 2: TTCTTTTTTTGATAGAGGATTAAAATCTATAAGAAA
On to B39, for which the binding signal is 6.12 ln median PBM intensity, better of two orientations.

B40: GTGCAC_negctrl_site474 (dsDNA)
DNA 1: ATAAAATATTAATTTTAAATTAATCAATATATATAA
DNA 2: TTATATATATTGATTAATTTAAAATTAATATTTTAT
Turning to B40, the binding signal is 6.16 ln median PBM intensity, better of two orientations.

B41: GTGCAC_negctrl_site347 (dsDNA)
DNA 1: TTTTTTTTTATATAAAAAAAAATTTTTATTATTTTA
DNA 2: TAAAATAATAAAAATTTTTTTTTATATAAAAAAAAA
For B41, the binding signal is 6.12 ln median PBM intensity, better of two orientations.

These data come from PMC11417369, “DNA sequence and chromatin differentiate sequence-specific transcription factor binding in the human malaria parasite Plasmodium falciparum”.
